Common to all, as to details: both partners purified
Assay [1] addresses T1, murine Importin α with the Importin β binding domain (IBB) deleted, Impα(70–529) (murine, UniProt P52293 70-529). Put plainly: fluorescence polarisation; competition: serial dilutions of unlabeled peptide into 150 nM Impα(70–529) and 100 nM FITC-labeled FL-NLS peptide in FP buffer; fit to a competitive binding equation; apparent. (In general: Polarisation of emitted light reports the rotation of a fluorescent probe.)

The target in assay [2] is T1, murine Importin α with the Importin β …. Put plainly: fluorescence polarisation; direct titration: serial dilutions of Impα into 100 nM FITC-labeled peptide; FP buffer (20 mM Tris pH 7.7, 125 mM NaCl, 1 mM EDTA, 2 mM TCEP, 5% sucrose, 10 mM NaN3); room temperature (legend: 25 °C); apparent dissociation constants, single-site fit.
Assay [3] has as its target Impα(70–529)(W184R/W231R) (murine, UniProt P52293 70-529, W184R | W231R). The assay is described as above.

No end group written: not given here. *: point of attachment. FITC = O=C1OC2(c3ccc(O)cc3Oc3cc(O)ccc32)c2ccc(NC(=S)*)cc21

B1: NLS-E4: XRCC1(241–276)/(T257E/S259E/S266E/S268E) quadruple variant (peptide)
peptide: SPKGKRKLDLNQEEKKEPEKPPAQLEPEVPKRPKLP
notes: human XRCC1 residues 241-276 with four glutamate substitutions that mimic phosphorylation; also called NLS(T257E/S259E/S266E/S268E)
For the molecule B1, in assay [1], the Kd stood at 604 nM.

B2: FL-NLS: FITC-XRCC1 (241–276) (peptide)
peptide: {FITC}-SPKGKRKLDLNQEEKKTPSKPPAQLSPSVPKRPKLP
notes: human XRCC1 residues 241-276, the bipartite NLS; also called Full XRCC1 NLS ligand; FITC-labeled bipartite XRCC1 NLS; source: synthetic peptide, bought: Genscript
Consider B2, for which the Kd in assay [2] was determined as 108 nM; in assay [3], 7400 nM.

B3: M2: XRCC1 (268-276)-G-Lys-FITC (peptide)
peptide: SVPKRPKLPGK(FITC)
notes: added G-Lys that carries the FITC label; also called major motif ligand; major motif peptide; source: synthetic peptide, bought: Genscript
As to B3, the Kd in assay [2] is 2100 nM; in assay [3], 690000 nM.

The values above are taken from PMC4548243, “Nuclear Localization of the DNA Repair Scaffold XRCC1: Uncovering the Functional Role of a Bipartite NLS” (Scientific Reports, 2015).
